# Data from the domain aggregation screens of Martell et al. (2025).
# Assay: soluble fraction after stress (log2 fold change); higher = more stays soluble; pooled small domains, quantitative proteomics
# Details: stress: 50 degC
# Outline: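 Each library was heated to 50°C as a stress step. The libraries, made up of small protein domains, were pooled and analysed at high throughput by quantitative proteomics. The reported value is the base-two logarithm of the fold change in each protein's soluble amount after stress, taken as a measure of aggregation propensity. The higher the value, the more protein stays in solution.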
row,Sequence,soluble fraction (log2)
1,HMSQYELEDVEKQRLKFKNGDEKALWLLSDIYKDNSQSYEVRLAALRALSESRHPLIIFDIQSSVK,-0.208
2,HMEELVGFEEKVRSILTSPLSAKEIKEKTHIEIDTRKLSKMLSELSFIKTEKKNGKKIFRLVS,-0.284
3,HMPWLIAVTVDGVNLPRFLRRAGEMGLLLTGVRIRGKHLSAFAREDDVPPLRMMAENGGWRFSVGN,-1.61
4,HMDGYLQLASKKNELITQLKTPPKPKRLFKDFEDRVYLITEYKVFVVSIFQNEFRLRPVNKDDFYRYTT,0.207
5,HMNPVVATTIILDGEIIKDNLAEANLSEEWLLEELKRQNFNDVKEVFYAEWLDGKQLFAYPYTK,-0.224
6,HMKTTSYAKLLRFLRTERDLSQITVAKQLGLSRASYLALEHGSRELSLSEAVKVTTLYGIRIDDLIVNH,-3.48
7,HMDIDLNTIKKITLDDIHAFLSYLTTTYHSKAATRARKASSIRVFFNYLSAKANLIEVNPAQNLETPKLD,0.0581
8,HMPVFYATNRQKTTIHNLKRKKGLDDDAYRATIYSFTHGRTDSSKYMYKYEAAELIQKWLDPE,-1.7
9,HMSIGLEDLIEQKGVADTDLRPSGWINVGNQRIFVVTEGSYIDQNDNVIILSVDGNRVVVRKI,-0.747
10,HMASFGDLSGLKRTYPPQGLPDASRIADFLIARNEGDLSVEQVKALERFLFEHPDHERTARLVAATRVPA,-0.0263
11,HMPGTPADQVAELQTKVGTETKTGDMITQDDVKLLQTALDPLAKMNDRIQAAKILESKGIVTSDGNLRT,0.124
12,HMPLIPIAIELARHALPSLIGAIAGDKSEKVAKEVVDAALKTTGKTTPDEALHALQADPQLAHEYRLSLL,0.287
13,HMSASSTAPGSVTLRGAILTAWTAAGGERSKMGLPVGYEVRQADGTVTQTFEKGRISVSPTGTATI,0.0647
14,HMDVLKMKVEDLNIGSRTVNSLTAAKIKTVAGLIKKSKESLLELDGMGNKGVEEIILALKKLGLEL,0.0186
15,HMPSLSPDETVVVDALRQQNDMQINMISVKTNLPIARLSAILFEMELKGVLKPLAGGVYHLL,-0.316
16,HMNKNIKIPNISNLSREDAESVLKESGISVSTEIKEVESDTIEKGKVVKTEPSIGSTVKQGRTITIYISSG,0.0574
17,HMRRDEDLAHGRELLEKELRKQGLEVSENLKQDKLLEGAKRLGFLEAEDLVVAVGSGKVSAGMAVGRIIG,0.16
18,HMVKSIDEIYNEAVKSLANEDYDAAKKLFNYLINNFSDPDKFPLSLFWLAEIEFSSSNFDASKNYYMQ,0.0746
19,HMAVPMTPGELVGSRVRVLWWKDGRGEVVALARGHQATLPARSEEPLRTGADAVVLEADEGTLVVTS,-0.0203
20,HMSQDLVVLGDSMLNNALKAFHIDPNAIKKKYWDKLILDYHLKSKEEVLTEIALGKKINVMVAHQLTSIMD,-0.0721
21,HMAVNDPDEKFIELGIPADWVQVVRKAGFQTVEALKTVENPNKLHQELSGLNKKMKLGLKTLSQDEVKDWF,0.215
22,HMGTKVGAPLPGTITEVKVKVGDTVKAGDAVIILEAMKMQNNIEAEVSGTVSSVLVKEGDTVMEGDALITI,0.144
23,HMAEKGIGRVNADWLNMRTSPGGEVLTVLKQGTELQVIGRSGSWLEVQHGNEQGYVSSRYITIQP,-0.17
24,HMHAPKIIVLTINPDKIRDVIGPGGKMIKSIVAATGVKMDVEDDGKIHISSSDQKAADEAIRMINEITAEA,0.0184
25,HMASFASRAEEVMTKLLANGQPRIKEVADAMHLSSRTLQRRLEREGVSFAELLDRLRKRLAHDMLAHS,-0.813

row,Sequence,soluble fraction (log2)
1,HMSDPELAIPRVVGLSGNDAQAALVKAGFSAVTVVTVKNSEVTSEQVTHVVPAEGAKAKASTPVTVVVSSS,-0.0196
2,HMQQLTDRELEVLRLLAAGLSNNKIGEKLYISATTAKFHVSNIMRKLEVSRRAEAVYAASKRGL,-2
3,HMSFEITGDELILRFVKDKGGATTEQIRKHWEASNRGGKSDNNLTNLVKSGKLLRSKDPNGPGSLYTAS,-0.231
4,HMDYARYGLSEKEAELIELIAQGMNNKEISAEIYLSEGTVRNYISELLEKLELRDRTQLAVYYYTHR,-2.71
5,HMISDDLYQAVLDFTLTQDTISISRLQQNFNLGWPRARQLYDQLMQNGIIEPPDEANSAKGAVVIANKRG,0.46
6,HMLSYNINEESKSSIMNVNVLKNNFASIDVEKLQNIIFTTFKKYNYYLNDFSSMNLLLHLLIIVDREL,0.337
7,HMNTISEADAKRIALERAGLTAADYVKVDYDQDDNEYEVEMRSGNTEYEVKISGSTGAVLEYDSETD,0.149
8,HMNVNFVQANLANLPNIQAIYQKGNEMLNDMKRGEAREIDEAYSRVDNGVGTEKDFKVLLSFRDKIIAAMQ,0.362
9,HMSTLGIRIKHYRTDSNLTQKELAGLINVKRDALANWETDRALPDVMNLKKLAEVFQVSTDELLQV,-0.927
10,HMAATHYEGIKQDGETDDAVIERVLTGLSVTANKDDIFIVKTLIAGTKYSYTAYVYNGNAWAAM,0.0325
11,HMPRKLDDQLQEQIRYLKSNYPRMSAAGIFRQLQDNGSIKHGDVSESTINRYVNLLSIEMKTTT,-0.223
12,HMRGPTIELLIQKSALYEELDDSENALKEILKAFDRDSLNSDVLNRLVNLLLNDKQIDRAENYNQLLIEK,-0.32
13,HMIMTGSIQEKNGKYYTVLNIKDKNGKYKKKWQTTGLPVKGNKRKAEQILRRRIAEYEANQL,-0.436
14,HMVKPQANTIYKEYIKYRANLQNKNEFLSFSEYAKQKHNLEQMSEIMVDANLKEEMLETLKEMS,0.0362
15,HMELLEVSVIIREADSTGWSAARQGMEQAAADLGAELRFLTLSQSNSAEEQRSLLAREVEGGADAVVLV,-0.142
16,HMIEDMQQWIRQIREIVSNRLDLTRNISDDEIREVISDIVMEQSRQQYMSLNEKKTLMEGVFNSMR,-0.157
17,HMGIDAIDNFVSKIIMKIEGLGESEVPTSTIGKFIMEGLQYLDTVAYVRYASVYKNFKEAKDFEQFVGSL,-0.179
18,HMEGSRASMDGQVPGKTSYLEWLARQPAQRQDQVLGAERGRLFRAGEIDLADMFTDKGEWISLERLKQLS,0.221
19,HMRSLAVGNVVSEEGKPSYLLLDSKRTMLFSENSIPSLYLEDGRRVIVNYTLLDEDYQGYDFRIHVNDIDT,-0.113
20,HMGYDDVIVINGKNETYGFPTKVEDDPVLSLVIKGDRSIDYAEERRLFYVAMTRTKNRVFFVAP,0.0138
21,HMLRLLEIIAGNEVSKEINSQVIKYYKALKNKKIEEINNLTPSYNKLIISFDLKKKNFREMKKIIEDISIN,-0.162
22,HMVEKNALSEEIEGYVNKYGKDRSSLMPVLQAIQRKHSYINDFAQQEVARLLDIHPVEVFSVISFYSFLH,-1.79
23,HMLAHSEFGARLRETRKRLGLSQSELGGDRYSGSYISHLESGRRAASAEVIEFLAGRLGVEVEELGM,-0.171
24,HMASDQGAGALREVSAFFEKHGRVPDPDAVDHDEMRLGSIWASIKSAPTDQMRLEDRFGLLD,0.1
25,HMRQQLAEILQKAVDNLPEAQRLVWLLRDKSDMTFKEIAEDLQLTEANVRVLLHRARLKLLAVINQYEE,-1.38

row,Sequence,soluble fraction (log2)
1,HMTDAYEVLDLNREASDEEIKKRYRELIREHHPDTLIAKGVPQEFVDLANDKMAAINAAYDRIEKDRGL,0.279
2,HMGAPLAVGDSVRVVVSGPRAFVYTAPNGALSGAVRNGAAFTVLELSPDNTWARIGSGEWIKVEFLATG,0.0428
3,HMAPKRIVLRFGKDISDKPIIYYLVKDYDLVINILKANVNPNKEGTLVLELSGENYDKGIEFLISQGVTVQ,-1.56
4,HMEAVIGGIYRHYKGNNYKLLAVATHSETLEKMAVYQALYGEMGIWVRPLAMFMETIEKDGQSLKRFE,-1.78
5,HMQPAALEAQVIKLVRLHAPIKARQLATILANEFGQHVDRSTVNSLLYQLRAQGKVAQNAAYQWSLT,-0.65
6,HMVEQVEISILPGEYSDTISQKLLDAGLIDDKAAFSKYINDTNVDNLIQPGTFTVPKGASYEEVAKILT,0.212
7,HMELAALKILNSPIGKIAIGTSENGLVKLDILTSGQTRAEFSDLPKAHKLALDAADQLAAYF,0.0579
8,HMFNVKAYEKAVKSYITKRKPLGEALDEEIMDELSVKFGIVDDALEDLFKQIQDAGISIVDKDGNPSPLAL,-0.619
9,HMGNKDIEILFSEIVEMRNRIIHGFRITSKQGEQILATKTRKKDGNIQFEITKEYLLDFIKKNEELSDMLY,-2.23
10,HMLKLPVEYLNLKYQLMHATSLDKPNNLMKLDEKLGKIIDVYYDDLPVDEQRVVDILQSKLYSY,-0.996
11,HMGGLALAEREVVEWLSQRNLLPSPDVVARAAAHPDGLGWLERSLAVLEGPRLFLGLGDLVPEP,-0.411
12,HMTWIAEIELRLMGNGAVTGAKIVKSTDLKDVDAAIYRAALEASPYPAPESGIGGRFTIKLKY,0.198
13,HMLSSEQQQKLDSLSRKELEVAELVSHGATNKMIARTMNITERTVKAHLTAIFQKMNIPDRLSLAIFFRDL,-2.44
14,HMSNIAQRLVLENALAKLNQEQQTIIDLRIIKGYSVAETARLLGKTESAVRTAQYRALKELAGILEED,-0.86
15,HMSTPAKVTPTNPIVKQLFNAAETQIKNKDIQNAIASYEKADTLTTDEKVKQYIHYQLSTLKDDN,-0.14
16,HMTGETWAERSRALAAAGLIVMGQEAKNKIEDLPSLSPLIEAAAASETRLLTGQIIDELLAFV,-0.288
17,HMDTKLFNYGVGKHAYISWNEGGKRTAYIGFGNDGADVLTINNVKQGGSLGIYKDKITLNSQTVLTD,-0.0296
18,HMKPTSLLGIERYLGSGLIRGVGPSTAKQIVEHFGMETMEVLTEHPERLQEVHGMGRKRWRQIAESFQEQQ,-0.797
19,HMQKWILVNKQGRLSGILDHRAFNTRESATAWFQRTSDISGGTIKIDDYYYVLKNEEYKLLKE,-3.15
20,HMETGLSNYEFKRIREQAEALLSDGQVRRINDLVDSIKNENAEKVIRVIRFLIDTEELILEDDRVSAKKS,-0.0558
21,HMDHKSQLQEWAQSTLGETPRYVTIAETGPDHDKELTVELIIGRKSYSIAKGKSKKQAEQSAARIALGLLM,-0.653
22,HMTLVKRSAMVTAWSEFAGGRVNSKLIALQNGKAGDWIELENPQSGRKLRGRVQSDGSVRLGS,0.169
23,HMGLSAALKARLREVINEMAKSGAQPKLREWALAEGIGNFAKPETPEAAEAVIAKAQELLAEA,0.547
24,HMQGLIGEQKAIQIALSRVPGAKPEHVRELKLDYDDGMQLYEGEIFYNFREYEFEINAVTGEVVGWEI,-1.6
25,HMLKDININVTGLDQISNAKLINNLNLLKMNNLFFLDEKKIKKILNSNNLIEKFFIFKKYPSTLDIKVYKT,-0.0369
